Source: US20230071609A1 (Genentech, published 2023)

Target: T1, endogenous human APOL1 (wild-type immortalized podocytes; also JHH-1 cells, kidney and liver tissue) (human, UniProt O14791 28-398)
T1 construct: whole, on cells; Cell or tissue and permeabilization are told under assay; also called podocyte APOL1; endogenous APOL1
T1 sequence (looked up): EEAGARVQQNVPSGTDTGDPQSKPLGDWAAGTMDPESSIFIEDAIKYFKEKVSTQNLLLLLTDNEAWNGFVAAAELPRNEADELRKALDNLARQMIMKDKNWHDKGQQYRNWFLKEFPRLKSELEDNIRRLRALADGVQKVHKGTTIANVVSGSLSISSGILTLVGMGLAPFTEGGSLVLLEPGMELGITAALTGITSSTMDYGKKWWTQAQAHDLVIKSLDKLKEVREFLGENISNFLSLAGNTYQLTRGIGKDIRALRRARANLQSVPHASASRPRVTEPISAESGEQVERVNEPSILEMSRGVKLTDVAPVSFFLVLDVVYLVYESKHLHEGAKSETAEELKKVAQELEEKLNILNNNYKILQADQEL
Assay: flow cytometry, live WT and iAPOL1-G0 podocytes
Description: Cells were harvested with 5 mM EDTA in PBS, washed once with growth media and twice with PBS. Approximately 0.5×10⁶/m1 of cells resuspended in PBS were incubated with anti-APOL1 antibodies for 1 h on ice. Following two PBS washes, 2 μg/ml of Alexa488 anti-mouse or anti-rabbit (Invitrogen A11029 and A21206, respectively) was used for 1 h on ice for detection. Cells were washed twice in PBS and resuspended in PBS with 1 μg/ml propidium iodide. Signals were read in a FACSCalibur3 (Becton Dickinson), with the exception of FIG. 8A and FIG. 14, which used a FACSCelesta, and data was analyzed using FlowJo v8.4.5. Mean fluorescence intensities were plotted in PRISM v7 after subtraction of secondary antibody alone background. For low pH experiments, cells were incubated with the antibodies in the presence of PBS pH 7.0 or PBS pH 5.5 for an hour on ice and detected with secondary antibodies at neutral pH.
More importantly, there were also differential APOL1 accessibilities between serum APOL1 and kidney disease-relevant podocytes (FIG. 18B). Some antibodies bound surface APOL1 in WT and iAPOL1 podocytes (FIG. 6A, 6B), but not circulating APOL1 (as judged by lack of trypanolytic blockade, FIG. 6C) and vice versa. […] Conversely, 3.3B6 and 4.17A5 were among the top trypanolytic blockers, but recognized the podocyte surface relatively weakly. […]

B1: antibody 4.17A5 (antibody, V domains shown)
VH: QVQLQQSGPELLKPGASVKISCKGSGYAFSNSWINWVKLRPGQGLEWIGRIYPGDGDTKYNGKFKGKATLTADKSSSTAHMQLRSLTSVDSAVYFCARFPFGKYEGPGAMDYWGQGTSVTVSS
VL: DIQMTQTTSSLSASLGDRVTISCRASQDISSYLNWYQQKPDGTIKLLIYYTSRLHSGVPSRFSGSGSGTDFSLTISNLEQEDIATYFCQQGNTLPYTFGGGTKLEIKR
notes: Mouse mAb (Method #4), cloned as murine IgG2a LALAPG; also called mAb 4.17A5
binding result: binds
